From patent publication US11857509B2, “Liposome compositions and methods of use thereof” (University of Rhode Island Board of Trustees, priority 2010, dated 2024) come the findings set out here.

One data set relates to acidic tissues, tumors. The data set is described as follows: In vivo fluorescence imaging of tissue and tumor targeting. More on the design: species or system mice and rats. From the text: The pH-dependent interaction of pHLIP with membranes allows selectivity in the targeting of acidic (less than pH 7.0) diseased tissue. As noted above, acidity and hypoxia are considered as universal cancer biomarkers, and pHLIP is used as an acidity-targeting probe. Besides cancer, many other pathological states, such as inflammation, ischemia, stroke, arthritis and others are characterized by acidity in the extracellular space, which may broaden the potential applications of pHLIP. […] In addition to fluorescence imaging, PET (positron emission tomography) imaging of the acidic environment in human prostate tumors was performed using ^64Cu-DOTA conjugated to pHLIP. […] To manipulate the acidity of tissues, a buffer solution is administered to the subject systemically or local to the area in which a pH change is desired. In this manner, pHLIP-liposome-mediated delivery of a cargo compound is regulated, e.g., reduced or stopped. For example, administering bicarbonated water, which increases tissue pH, results in a reduction of tumor targeting by pHLIP.
The transmembrane (TM) part of exemplary pHLIP peptides contain two Asp residues. […] The replacement of the key Asp residues by Lys, Ala or Asn leads to the loss of peptide of pH-dependent membrane insertion, as measured in liposomes, red blood cells and confirmed by in vivo fluorescence imaging. […]

Data set [1] relates to liposomes and cellular membranes. The class given is cell-based. From the text:
Toxicity is one of the most critical issues in the selection of any delivery agent. For example, the use of pore-forming membrane peptides as delivery agents is complicated by the toxicity associated with the formation of pores in cellular membranes in vivo.

A short description of data set [2]: Oligomeric state and aggregation of pHLIP in solution and on membranes. The class given is physicochemical. The protocol: Poor solubility due to aggregation is a typical property of membrane peptides, which has complicated studies and applications. Isolated or purified pHLIP, as any membrane peptide, also has a tendency to aggregate, especially at high concentrations and/or low pH. However, in aqueous solution at neutral pH pHLIP exists as a monomer at concentrations less than 30 μg/mL (˜7.0 μM), as studied by fluorescence and CD spectroscopy measurements, size exclusion chromatography coupled with “on-line” laser light scattering, ultraviolet and refractive index detection (SEC-LS/UV/RI) and analytical ultracentrifugation experiments. When the solubility of the peptide is compromised as a result of mutations, the affinity of the peptide for a membrane and its overall conformational properties change. Thus, studies were undertaken to design pHLIP peptides that are optimized for clinical diagnostic and therapeutic use.
The oligomeric state of the peptide on the surface of a membrane (state II) and inserted into the lipid bilayer (state III) were evaluated by FRET performed with two different donor-acceptor probes attached to the N-terminus of the peptide.

Data set [3] in a line: pH-dependent membrane insertion of pHLIP peptides. The class given is physicochemical. From the text: Peptide folding and membrane insertion are driven by a drop of pH from neutral or high (>7.4) to slightly acidic (7.0-6.5 and less) pHs. […] In contrast, all pore forming peptides first form aggregates on the membrane surface and then “fall” into membrane and form pores.
The transmembrane (TM) part of exemplary pHLIP peptides contain two Asp residues. At neutral pH these charged residues enhance peptide solubility and serve as anchors keeping the peptide at the surface of membrane, thereby preventing pHLIP partitioning into the hydrophobic membrane bilayer. A reduction of pH induces protonation of Asp residues, and as a result, the overall hydrophobicity of the peptide increases, enhancing the affinity of the peptide for the lipid bilayer core and triggering peptide folding and insertion. The replacement of the key Asp residues by Lys, Ala or Asn leads to the loss of peptide of pH-dependent membrane insertion, as measured in liposomes, red blood cells and confirmed by in vivo fluorescence imaging. […] The Ala substitutions yield a peptide that aggregates in solution (but de-aggregates when it becomes diluted in bodily fluids or tissue upon administration to a subject), while the Lys and Asn substitutions give peptides that are too polar to insert either at neutral or low pH. […]

For data set [4] the following is noted: in vivo. From the text:
If the peptide sequence were made more hydrophobic, tighter binding to red blood cells and epithelial cells and more aggregation in solution, and slower clearance and reduced bioavailability would occur. Making the peptide less hydrophobic accelerates clearance and prevents the peptide from finding its targets. Therefore, fine tuning of the solubility is an important property to optimize pHLIP performance in vivo.

Values joined by “and” are separate entries in the source; they are usually repeats but may differ in a detail not shown here. Equal values may be shown once.

Take “K-pHLIP (ACEQNPIYWARYAKWLFTTPLLLLKLALLVDADEGTG; pHLIP variant)”: the “targeting of acidic tissue and tumors” value with acidic tissues, tumors was “does not demonstrate tumor targeting”.

“pHLIP: water-soluble polypeptide based on the bacteriorhodopsin C helix, e.g. SEQ ID NO: 4 (ACEQNPIYWARYADWLFTTPLLLLDLALLVDADET; pHLIP variant)”: in data set [1], the cellular toxicity entry is listed as “no cellular toxicity” and the membrane leakage result is reported as “does not lead to membrane leakage”. In data set [2], the “oligomeric state in states I, II and III” value was “monomer”. Besides, the “concentration at which pHLIP exists as a monomer” value in data set [2] (aqueous solution at neutral pH) was “less than 30 μg/mL and ~7.0 μM”. In addition, the “apparent pK of insertion” value in data set [3] worked out at 6.0. Also, the “targeting of acidic tissue and tumors” value with acidic tissues, tumors is “can target acidic tissues”. In data set [4], the “circulation in the blood” value is “several hours”.
